Target: T1, translin-associated factor x (trax), mouse, N-terminal 6x-His tag (mouse (M. musculus), UniProt Q9QZE7 1-290)
T1 sequence (looked up): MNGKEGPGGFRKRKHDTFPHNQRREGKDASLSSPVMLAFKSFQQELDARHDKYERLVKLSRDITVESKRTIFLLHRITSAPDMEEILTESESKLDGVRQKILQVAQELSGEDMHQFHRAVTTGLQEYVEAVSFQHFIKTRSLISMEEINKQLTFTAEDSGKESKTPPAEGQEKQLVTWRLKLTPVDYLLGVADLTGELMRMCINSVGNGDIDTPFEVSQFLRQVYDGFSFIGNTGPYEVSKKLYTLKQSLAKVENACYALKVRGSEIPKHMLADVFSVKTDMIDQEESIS
Assay: pull-down

B1: translin (mouse), co-expressed with trax from pETDuet-1 (natural protein, mouse (M. musculus), UniProt Q62348 1-228, looked up)
chain: MSVSEIFVELQGFLAAEQDIREEIRKVVQSLEQTAREILTLLQGVHQGTGFQDIPKRCLKAREHFSTVKTHLTSLKTKFPAEQYYRFHEHWRFVLQRLVFLAAFVVYLETETLVTREAVTEILGIEPDREKGFHLDVEDYLSGVLILASELSRLSVNSVTAGDYSRPLHISTFINELDSGFRLLNLKNDSLRKRYDGLKYDVKKVEEVVYDLSIRGFNKETAAACGEK
  stoichiometry N: ~1

Source: PMC2901993 (Biochemical and biophysical research communications, 2010)
